The values below come from IntAct's records for PubMed 19363481.

The labels stand for the following.
B1: DNA repair protein rad60 (Schizosaccharomyces pombe (strain ATCC 38366 / 972)), Q9USX3 (parent)
chain: MDNLDEDDLAFFSKPIKKPPLNYAKQLIASSSDSEEESELDTNKQALEHINAQKNITHNENKSAEPLSRQSTILDADEGNQDVSDTTPNACLNEGRHSPKSAISCVTQPVSPVYNTRAAANLRNNSINSEAALSTTSSLLDDDFARRLEEIDRQVQEFEKSSSDMDVQIHTHKREIEEDDDNTSADVPLLKHSKSDHSTLYHSKSEFSTNEPVISVVLQLAVIGQRIPNSNISLPRDWEAPLFFKVKSNQQFRRVRIAYSERKKVDNVVLVFQNQRLWDYGTPKGAGMLKVDTRLVVHAYCHSDFISLKRIKELEVEKLSSVTEDSTAQTCKLITLLLRSSKSEDLRLSIPVDFTVKDLIKRYCTEVKISFHERIRLEFEGEWLDPNDQVQSTELEDEDQVSVVLD
partner: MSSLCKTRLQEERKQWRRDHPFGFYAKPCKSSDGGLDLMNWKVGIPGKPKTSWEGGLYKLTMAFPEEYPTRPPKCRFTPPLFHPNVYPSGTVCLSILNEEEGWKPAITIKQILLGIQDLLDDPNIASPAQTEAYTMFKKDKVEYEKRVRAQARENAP

In this experiment the parent is B1. Conditions: with ubc9_schpo hus5, P40984.
In the case of E380R, the “effect of a mutation on the interaction” value was “disrupting interaction”.
